Our source for the maximum percent inhibition values is US20090004680A1.

In this assay the target is Mouse synaptosomes (BoNT/A acceptor on a mouse synaptosome preparation).

Consider “Inactivated BoNT/A (toxoid) (from UniProt P0DPI0 2-1296)”, for which the maximum percent inhibition stood at 98%.
